Values of other authors in PMC2033707.

Target: EGF (UniProt P01133)
Chain of UniProt P01133 (P01133 971-1023): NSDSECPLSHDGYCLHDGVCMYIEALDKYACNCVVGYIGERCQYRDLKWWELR

## EGFR (from UniProt P00533)
  Kd: 1 nM
